Substrate: OC(CS)C(O)CS
Assay: oxygen consumption, Clark-type oxygen electrode
Type: biochemical, Trypanosoma brucei
Conditions: O2 as electron acceptor, air-saturated, 25 °C, 50 nM enzyme, Michaelis-Menten fit of data up to 1 mM DTT (turnover rises beyond the fit above 1 mM)

B1: TbQSOX (Trypanosoma brucei brucei TREU927) (protein)
chain: SVAQVATGSPRPGLFHLDSSVVDLSGDDFSRVHRVAPLCPWIVLFYNDGCGACRRYASTFSKFAGGLKVEHGKDALQIATAAAVNCASEVDLCRKYDINFVPRLFFFYPRDSCRSNEECGTSSLEHVAFENSHLEVDELESEVRRLVNKHMVVDDSLKERCIDMHFKLYTSKEELVKRSVSSTDESGRFVETTELYATDIAGAFFSAMHYDVSLVGTEPRERLTALEDFVLLVKDSLPSIGADGVVSALESITAERPFTVASWQDAVVKSGIPFDGSPRNVRWRTCRGSSPQYRGFPCGMWLLLHALTVNTPADRNVLEVIQNYIRYFFSCKECRDHFIQFNFSPNEDPVLQLWRAHNNVNARLANVKDGADPLVPKRQFPTLEACTECYDGAGNFIEAHVTGFLKQRYLWDPKAVGLMESNDDLNEVDPASKDANVGRNVESSGKGKGDGGARGNSKEVRSDHAG
Work on B1 yielded a Km of 65 ± 10 µM.

— publication PMC4634331, “Single-molecule spectroscopy exposes hidden states in an enzymatic electron relay” (Nature Communications, 2015)
